From publication doi:10.1101/2021.08.27.457910

Legend:
[1] = molecular target: Sgo1_(1-130) (human) (UniProt Q5FBB7); experiment: ITC
[2] = molecular target: Sgo1_(1-415) (human) (UniProt Q5FBB7); experiment: ITC
[3] = molecular target: Sgo1_(1-415) (human) (UniProt Q5FBB7); experiment: mass photometry

Row | stoichiometry N [3] | Substance | Kd [1] | Kd [2] | dH [2] | stoichiometry N [2]
1 | – | CPC_(ISB10-221) (INCENP_(1-58), Survivin and Borealin_(10-221)) (from UniProt Q9NQS7 1-58; O15392 1-142; Q53HL2 10-221) (complex) | 163 nM | – | – | –
2 | – | CPC_(ISB10-280) (INCENP_(1-58), Survivin full length and Borealin_(10-280)) (from UniProt Q9NQS7 1-58; O15392 1-142; Q53HL2 10-280) (complex) | 57 nM | 53 nM | -6.58 kcal/mol | 1
3 | 2 | Sgo1_(1-415) (from UniProt Q5FBB7 1-415) (domain or fragment) | – | – | – | –
4 | – | Survivin (from UniProt O15392 1-142) (natural protein) | 255 nM | – | – | –
